In the RNAGym collection of RNA variant scans (doi:10.7554/elife.80360):

B1: Hairpin Ribozyme (parent)
chain: GUCCUCUUUCACGUGCGCGUGAAAGAGAGAAGUGAACCAGAGAAACACACGUUGUGGUAUAUUACCUGGUA

Variants of: B1
Assay: self-cleavage, relative activity (ratio to wild type); higher = more cleavage; co-transcriptional

Question: With GUCCUCUUUCACGUGCGCGUGAAAGAAAGAAGUGAACCAGAGAAACACACGUUGUAGUAUAUUACCUGGUA [G27A G56A] as the variant, how does the self-cleavage read?
Answer: 0.116

Question: For GUCCUCUUUCACGUGCGCGUGAAAGACAGAAGUGAACCAGAGAAACACACGUUGUGGUAUCUUACCUGGUA [G27C A61C], which self-cleavage is on record?
Answer: 0.0843

Question: Which self-cleavage does the source give for GUCCUCUUUCACGUGCGCGUGAAAGACAGAAGUGAACCAGAGAAACACACGUUGUGGUAUGUUACCUGGUA [G27C A61G] here?
Answer: 0.237

Question: Which self-cleavage does the source give for GUCCUCUUUCACGUGCGCGUGAAAGAAAGAAGUGAACCAGAGAAACACACGAUGUGGUAUAUUACCUGGUA [G27A U52A] here?
Answer: 0.337

Question: With GUCCUCUUUCACGUGCGCGUGAAAGACAGAAGUGAACCAGAGAAAUACACGUUGUGGUAUAUUACCUGGUA [G27C C46U] as the variant, how does the self-cleavage read?
Answer: 0.106

Question: Which self-cleavage does the source give for GUCCUCUUUCACGUGCGCGUGAAAGAAAGAAGUGAACCAGAAAAACACACGUUGUGGUAUAUUACCUGGUA [G27A G42A] here?
Answer: 0.153

Question: With GUCCUCUUUCACGUGCGCGUGAAAGAAAGAAGUGAACGAGAGAAACACACGUUGUGGUAUAUUACCUGGUA [G27A C38G] as the variant, how does the self-cleavage read?
Answer: 0.0969

Question: With GUCCUCUUUCACGUGCGCGUGAAAGACAGAAGUGAACCAGAGAAACACACGUUGUGGUAUAUUACCUUGUA [G27C G68U] as the variant, how does the self-cleavage read?
Answer: 0.147

Question: For GUCCUCUUUCACGUGCGCGUGAAAGACAGAAGUGUACCAGAGAAACACACGUUGUGGUAUAUUACCUGGUA [G27C A35U], which self-cleavage is on record?
Answer: 0.0854

Question: With GUCCUCUUUCACGUGCGCGUGAAAGAAAGAAGUGAACCAGAGAAACACAAGUUGUGGUAUAUUACCUGGUA [G27A C50A] as the variant, how does the self-cleavage read?
Answer: 0.104

Question: Which self-cleavage does the source give for GUCCUCUUUCACGUGCGCGUGAAAGAAAGAAGUGAACCAGAGAAACACACCUUGUGGUAUAUUACCUGGUA [G27A G51C] here?
Answer: 0.238

Question: Which self-cleavage does the source give for GUCCUCUUUCACGUGCGCGUGAAAGACAGAAGUGAACCAGAGAAACACACGUUGUGGUAUAUGACCUGGUA [G27C U63G] here?
Answer: 0.101

Question: With GUCCUCUUUCACGUGCGCGUGAAAGACGGAAGUGAACCAGAGAAACACACGUUGUGGUAUAUUACCUGGUA [G27C A28G] as the variant, how does the self-cleavage read?
Answer: 0.128

Question: With GUCCUCUUUCACGUGCGCGUGAAAGACUGAAGUGAACCAGAGAAACACACGUUGUGGUAUAUUACCUGGUA [G27C A28U] as the variant, how does the self-cleavage read?
Answer: 0.138

Question: Which self-cleavage does the source give for GUCCUCUUUCACGUGCGCGUGAAAGACCGAAGUGAACCAGAGAAACACACGUUGUGGUAUAUUACCUGGUA [G27C A28C] here?
Answer: 0.164

Question: With GUCCUCUUUCACGUGCGCGUGAAAGACAGAAGUGAACCAGAGAAACACCCGUUGUGGUAUAUUACCUGGUA [G27C A49C] as the variant, how does the self-cleavage read?
Answer: 0.203

Question: For GUCCUCUUUCACGUGCGCGUGAAAGACAGAAGUGAACCAGAGAAACACGCGUUGUGGUAUAUUACCUGGUA [G27C A49G], which self-cleavage is on record?
Answer: 0.075

Question: For GUCCUCUUUCACGUGCGCGUGAAAGACAGAAGUGAACCAGAGUAACACACGUUGUGGUAUAUUACCUGGUA [G27C A43U], which self-cleavage is on record?
Answer: 0.151

Question: Which self-cleavage does the source give for GUCCUCUUUCACGUGCGCGUGAAAGAAAGAAGUGAACCAGAGAAAGACACGUUGUGGUAUAUUACCUGGUA [G27A C46G] here?
Answer: 0.138

Question: Which self-cleavage does the source give for GUCCUCUUUCACGUGCGCGUGAAAGAAAGAAGUGAACCAGAGAAAAACACGUUGUGGUAUAUUACCUGGUA [G27A C46A] here?
Answer: 0.103

Question: For GUCCUCUUUCACGUGCGCGUGAAAGAUAGAAGUGAACCAGCGAAACACACGUUGUGGUAUAUUACCUGGUA [G27U A41C], which self-cleavage is on record?
Answer: 0.423

Question: With GUCCUCUUUCACGUGCGCGUGAAAGACACAAGUGAACCAGAGAAACACACGUUGUGGUAUAUUACCUGGUA [G27C G29C] as the variant, how does the self-cleavage read?
Answer: 0.163

Question: For GUCCUCUUUCACGUGCGCGUGAAAGACAGAAGUGAACCAGAGAAACUCACGUUGUGGUAUAUUACCUGGUA [G27C A47U], which self-cleavage is on record?
Answer: 0.0683

Question: For GUCCUCUUUCACGUGCGCGUGAAAGAAAGAAGUGAACCAGAGAAACACACGUUGUGGUAUAUAACCUGGUA [G27A U63A], which self-cleavage is on record?
Answer: 0.103

Question: With GUCCUCUUUCACGUGCGCGUGAAAGAAAGAAGUGAACCAGAGAAACACACGUUGUGGUAUAUGACCUGGUA [G27A U63G] as the variant, how does the self-cleavage read?
Answer: 0.134

Question: Which self-cleavage does the source give for GUCCUCUUUCACGUGCGCGUGAAAGAAAGAAGUGAACCAGAGAAACACACGUUGUGGUAUAUCACCUGGUA [G27A U63C] here?
Answer: 0.236

Question: With GUCCUCUUUCACGUGCGCGUGAAAGAAAGAAGUGAAACAGAGAAACACACGUUGUGGUAUAUUACCUGGUA [G27A C37A] as the variant, how does the self-cleavage read?
Answer: 0.219

Question: For GUCCUCUUUCACGUGCGCGUGAAAGAAAGAAGUGAAUCAGAGAAACACACGUUGUGGUAUAUUACCUGGUA [G27A C37U], which self-cleavage is on record?
Answer: 0.32

Question: Which self-cleavage does the source give for GUCCUCUUUCACGUGCGCGUGAAAGAAAGAAGUGAACCAGAGAAACACACGUUGUGGUAUAUUACCUGGUU [G27A A71U] here?
Answer: 0.28

Question: For GUCCUCUUUCACGUGCGCGUGAAAGAAACAAGUGAACCAGAGAAACACACGUUGUGGUAUAUUACCUGGUA [G27A G29C], which self-cleavage is on record?
Answer: 0.12

Question: Which self-cleavage does the source give for GUCCUCUUUCACGUGCGCGUGAAAGACAGAAGUGAACCAGAGAAACACACGUUGUGGUAUAUUAGCUGGUA [G27C C65G] here?
Answer: 0.152

Question: With GUCCUCUUUCACGUGCGCGUGAAAGACAGAAGUGAACCAGAGAAACACAAGUUGUGGUAUAUUACCUGGUA [G27C C50A] as the variant, how does the self-cleavage read?
Answer: 0.242

Question: With GUCCUCUUUCACGUGCGCGUGAAAGACAGUAGUGAACCAGAGAAACACACGUUGUGGUAUAUUACCUGGUA [G27C A30U] as the variant, how does the self-cleavage read?
Answer: 0.255

Question: Which self-cleavage does the source give for GUCCUCUUUCACGUGCGCGUGAAAGACAGAAGUGAACCAGAGAAACACACUUUGUGGUAUAUUACCUGGUA [G27C G51U] here?
Answer: 0.17

Question: For GUCCUCUUUCACGUGCGCGUGAAAGACAGAAGUGAACCAGAGAAACACACCUUGUGGUAUAUUACCUGGUA [G27C G51C], which self-cleavage is on record?
Answer: 0.135

Question: With GUCCUCUUUCACGUGCGCGUGAAAGAAAGAAGAGAACCAGAGAAACACACGUUGUGGUAUAUUACCUGGUA [G27A U33A] as the variant, how does the self-cleavage read?
Answer: 0.0964

Question: With GUCCUCUUUCACGUGCGCGUGAAAGAAAGAAGUGAACCAGAGAAACACACGUUGUGGUAUCUUACCUGGUA [G27A A61C] as the variant, how does the self-cleavage read?
Answer: 0.107

Question: With GUCCUCUUUCACGUGCGCGUGAAAGACAGAAGUGAACCAGAGAAACAAACGUUGUGGUAUAUUACCUGGUA [G27C C48A] as the variant, how does the self-cleavage read?
Answer: 0.0978
